# Reference: the supplement of paper PMC10598134
# ± gives the standard deviation.
# Test: collision cross section of modified peptide (TIMS, N2, iRT-aligned); higher = larger / more extended gas-phase ion
# Method in brief: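 Values are averages of 1–3 technical replicates of the most abundant feature for each charge state. Collision cross section was obtained from the Mason-Schamp equation after 1/K0 calibration with three reference ions and run-wise alignment to the median iRT peptide deviation. Synthetic peptide pools (iRT standard spiked 1:40) were separated on a 120-min nanoflow C18 gradient at 60 °C, analysed on a timsTOF Pro/HT (dda-PASEF, nitrogen, ~2.4 mbar) and identified with MaxQuant.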
# [1] = charge state: 2, modification: Biotin
# [2] = charge state: 2, modification: Malonyl
# [3] = charge state: 2, modification: Butyryl
# [4] = charge state: 2, modification: GlyGly (K)
# [5] = charge state: 3, modification: GlyGly (K)
# [6] = charge state: 2, modification: Formyl
# [7] = charge state: 3, modification: Formyl
# [8] = charge state: 2, modification: Methyl (K)
# [9] = charge state: 3, modification: Methyl (K)
# [10] = charge state: 2, modification: Glutarylation
# [11] = charge state: 3, modification: Glutarylation
# [12] = charge state: 2, modification: Propionyl
# [13] = charge state: 2, modification: Trimethyl (K)
# [14] = charge state: 3, modification: Trimethyl (K)
# [15] = charge state: 2, modification: Nitro (Y)
# [16] = charge state: 2, modification: HexNAc (ST)
# [17] = charge state: 2, modification: Acetyl (K)
# [18] = charge state: 2, modification: Crotonyl
# [19] = charge state: 3, modification: Crotonyl
# [20] = charge state: 3, modification: Succinyl
# [21] = charge state: 2, modification: Hydroxyproline
# [22] = charge state: 2, modification: hydroxyisobutyryl
# [23] = charge state: 2, modification: Phospho (Y)
# [24] = charge state: 3, modification: Acetyl (K)
# [25] = charge state: 3, modification: Methyl (R)
# [26] = charge state: 2, modification: Succinyl
substance,measurement,setting,value
DASTLQSQKAEGTGDAK [_DASTLQSQK(Biotin)AEGTGDAK_],collision cross section,[1],450.36 ± 0.63 Å²
same,collision cross section,"charge state: 3, modification: Biotin",520.24 ± 1.3 Å²
LDHLAEKFR [_LDHLAEK(Malonyl)FR_],collision cross section,[2],366.99 ± 1.7 Å²
ILDLKTGTVK [_ILDLK(Butyryl)TGTVK_],collision cross section,[3],361.67 ± 1.2 Å²
ANLEKAQAELVGTADEATR [_ANLEK(GlyGly (K))AQAELVGTADEATR_],collision cross section,[4],487.2 ± 1.5 Å²
same,collision cross section,[5],513.9 ± 1.3 Å²
GTITVSAQELKDNR [_GTITVSAQELK(Formyl)DNR_],collision cross section,[6],413.69 ± 0.19 Å²
same,collision cross section,[7],471.67 ± 1.8 Å²
AGPNASIISLKSDK [_AGPNASIISLK(Methyl (K))SDK_],collision cross section,[8],413.97 ± 1.5 Å²
same,collision cross section,[9],479.63 ± 3.4 Å²
LLFSNTAAQKLR [_LLFSNTAAQK(Gluratylation)LR_],collision cross section,[10],406.85 ± 0.6 Å²
same,collision cross section,[11],487.13 ± 1.7 Å²
ITGKNQVTATK [_ITGK(Propionyl)NQVTATK_],collision cross section,[12],368.3 ± 0.65 Å²
PASGAGAGAGAGKR [_PASGAGAGAGAGK(Trimethyl (K))R_],collision cross section,[13],392.96 ± 2.2 Å²
same,collision cross section,[14],465.02 ± 1.8 Å²
LELAQYR [_LELAQY(Nitro (Y))R_],collision cross section,[15],326.89 ± 0.56 Å²
PARGLYSR [_PAR(Citrullination (R))GLYSR_],collision cross section,"charge state: 2, modification: Citrullination (R)",324.52 ± 2.2 Å²
ANLEKAQAELVGTADEATR [_ANLEK(Gluratylation)AQAELVGTADEATR_],collision cross section,[10],478.84 ± 1.4 Å²
same,collision cross section,[11],584.83 ± 0.77 Å²
SLEEEGAAHSGKR [_SLEEEGAAHSGK(Methyl (K))R_],collision cross section,[8],413.71 ± 2.6 Å²
same,collision cross section,[9],459.06 ± 3.1 Å²
SQLANTEPTK [_SQLANT(HexNAc (ST))EPTK_],collision cross section,[16],372.78 ± 0.59 Å²
VNVEAPDVNLEGLGGKLK [_VNVEAPDVNLEGLGGK(Formyl)LK_],collision cross section,[6],459.19 ± 1.2 Å²
IPQEKCILQTDVK [_IPQEK(Methyl (K))CILQTDVK_],collision cross section,[8],433.64 ± 1.1 Å²
same,collision cross section,[9],464.28 ± 2.7 Å²
DLGKFQVATDALK [_DLGK(Acetyl (K))FQVATDALK_],collision cross section,[17],405.65 ± 0.97 Å²
LTEKELAEAASK [_LTEK(Methyl (K))ELAEAASK_],collision cross section,[8],392.99 ± 1 Å²
same,collision cross section,[9],445.12 ± 4.9 Å²
IVSGKDYNVTANSK [_IVSGK(Propionyl)DYNVTANSK_],collision cross section,[12],411.4 ± 0.64 Å²
TELLPGDRDNLAIQTR [_TELLPGDRDNLAIQT(HexNAc (ST))R_],collision cross section,"charge state: 3, modification: HexNAc (ST)",528.81 ± 0.18 Å²
GGPGSTLSFVGKR [_GGPGSTLSFVGK(GlyGly (K))R_],collision cross section,[4],403.34 ± 0.36 Å²
same,collision cross section,[5],451.29 ± 1.3 Å²
DTPTSAGPNSFNKGK [_DTPTSAGPNSFNK(Methyl (K))GK_],collision cross section,[8],405.71 ± 2.7 Å²
same,collision cross section,[9],460.78 ± 4.6 Å²
LDEKENLSAK [_LDEK(Malonyl)ENLSAK_],collision cross section,[2],361.65 ± 0.75 Å²
PSVGSQSNQAGQGKR [_PSVGSQSNQAGQGK(Crotonyl)R_],collision cross section,[18],420.02 ± 0.41 Å²
same,collision cross section,[19],468.33 ± 1.6 Å²
AQLSQYFDAVK [_AQLSQY(Nitro (Y))FDAVK_],collision cross section,[15],386.8 ± 0.8 Å²
VFIGNLNTLVVKKK [_VFIGNLNTLVVK(Succinyl)KK_],collision cross section,[20],514.83 ± 3.9 Å²
VETTVTSLKTK [_VETTVTSLK(Biotin)TK_],collision cross section,[1],412.03 ± 1.9 Å²
GPPGPPGK [_GPPGP(Hydroxyproline)PGK_],collision cross section,[21],274.06 ± 0.78 Å²
VTLEVGKVIQQGR [_VTLEVGK(hydroxyisobutyryl)VIQQGR_],collision cross section,[22],414.48 ± 0.55 Å²
same,collision cross section,"charge state: 3, modification: hydroxyisobutyryl",486.66 ± 1.9 Å²
LELAQYR [_LELAQY(Phospho (Y))R_],collision cross section,[23],329.12 ± 0.75 Å²
SNEEGSEEKGPEVR [_SNEEGSEEK(Crotonyl)GPEVR_],collision cross section,[18],406.51 ± 0.28 Å²
PGSPGPPGSPGPR [_PGSP(Hydroxyproline)GPPGSPGPR_],collision cross section,"charge state: 3, modification: Hydroxyproline",422.04 ± 4.8 Å²
GGPGAPGAPGPK [_GGPGAP(Hydroxyproline)GAPGPK_],collision cross section,[21],326.77 ± 0.24 Å²
VGLQVVAVKAPGFGDNR [_VGLQVVAVK(Acetyl (K))APGFGDNR_],collision cross section,[17],442.66 ± 2 Å²
same,collision cross section,[24],493.83 ± 2.3 Å²
IISSIEQKEENK [_IISSIEQK(Trimethyl (K))EENK_],collision cross section,[13],411.54 ± 1.1 Å²
same,collision cross section,[14],448.49 ± 1.5 Å²
LAEQEAHYAVR [_LAEQEAHY(Nitro (Y))AVR_],collision cross section,[15],388.92 ± 0.55 Å²
same,collision cross section,"charge state: 3, modification: Nitro (Y)",469.49 ± 1.9 Å²
GTISAPGKVVTAAAQAK [_GTISAPGK(Acetyl (K))VVTAAAQAK_],collision cross section,[17],440.91 ± 2.6 Å²
same,collision cross section,[24],515.28 ± 2 Å²
AAYQAAIRGVGSAQSR [_AAYQAAIR(Methyl (R))GVGSAQSR_],collision cross section,"charge state: 2, modification: Methyl (R)",442.78 ± 1 Å²
same,collision cross section,[25],510.48 ± 1.7 Å²
TLQKQSVVYGGK [_TLQK(Succinyl)QSVVYGGK_],collision cross section,[26],397.13 ± 0.77 Å²
SEASSEFAKK [_SEASSEFAK(Propionyl)K_],collision cross section,[12],351.7 ± 3.7 Å²
GERGPPGPPGR [_GERGPP(Hydroxyproline)GPPGR_],collision cross section,[21],333.05 Å²
LDHLAEKFR [_LDHLAEK(Succinyl)FR_],collision cross section,[26],369.4 ± 0.74 Å²
same,collision cross section,[20],444.17 ± 3.4 Å²
DESFLGKLGGTLAR [_DESFLGK(Crotonyl)LGGTLAR_],collision cross section,[18],415.33 ± 0.28 Å²
same,collision cross section,[19],492.01 Å²
VYPSSLSK [_VY(Phospho (Y))PSSLSK_],collision cross section,[23],344.53 ± 0.066 Å²
ISPVEESEDVSNK [_ISPVEES(HexNAc (ST))EDVSNK_],collision cross section,[16],415.06 ± 0.62 Å²
DESFLGKLGGTLAR [_DESFLGK(Succinyl)LGGTLAR_],collision cross section,[26],416.2 ± 0.36 Å²
same,collision cross section,[20],490.1 ± 2.1 Å²
GEVQVSDKER [_GEVQVSDK(hydroxyisobutyryl)ER_],collision cross section,[22],366.78 ± 0.27 Å²
IINEPTAAAIAYGLDKK [_IINEPTAAAIAYGLDK(Methyl (K))K_],collision cross section,[8],488.76 ± 3.7 Å²
same,collision cross section,[9],550.89 ± 0.34 Å²
LLEQKTQESQK [_LLEQK(Malonyl)TQESQK_],collision cross section,[2],397.91 ± 0.65 Å²
ITGKNQVTATK [_ITGK(Methyl (K))NQVTATK_],collision cross section,[8],372.71 ± 1.1 Å²
same,collision cross section,[9],447.83 ± 5.1 Å²
VSPASSVDSNIPSSQGYKK [_VSPASSVDSNIPSSQGYK(Propionyl)K_],collision cross section,"charge state: 3, modification: Propionyl",557.31 Å²
VDIDAPDVSIEGPDAKLK [_VDIDAPDVSIEGPDAK(Dimethyl (K))LK_],collision cross section,"charge state: 2, modification: Dimethyl (K)",457.63 ± 1.8 Å²
same,collision cross section,"charge state: 3, modification: Dimethyl (K)",550.49 ± 0.63 Å²
SKLLFSNTAAQK [_SK(Malonyl)LLFSNTAAQK_],collision cross section,[2],394.73 ± 0.61 Å²
VSPASSVDSNIPSSQGYKK [_VSPASSVDSNIPSSQGYK(GlyGly (K))K_],collision cross section,[4],469.54 ± 1.4 Å²
same,collision cross section,[5],521.06 ± 4.6 Å²
GTISAPGKVVTAAAQAK [_GTISAPGK(Formyl)VVTAAAQAK_],collision cross section,[6],440.5 ± 0.16 Å²
same,collision cross section,[7],511.74 ± 2.1 Å²
SLKLNTAEDAK [_SLK(Formyl)LNTAEDAK_],collision cross section,[6],369.44 ± 0.39 Å²
SSGPGGQNVNKVNSK [_SSGPGGQNVNK(GlyGly (K))VNSK_],collision cross section,[4],407.13 ± 1.4 Å²
same,collision cross section,[5],459.52 ± 3 Å²
TLDEILQEKK [_TLDEILQEK(Trimethyl (K))K_],collision cross section,[13],388.3 ± 0.013 Å²
same,collision cross section,[14],439.75 ± 2.4 Å²
SNEEGSEEKGPEVR [_SNEEGSEEK(Formyl)GPEVR_],collision cross section,[6],397.09 ± 0.55 Å²
ISALQGKLSK [_ISALQGK(Propionyl)LSK_],collision cross section,[12],357.21 ± 0.33 Å²
GETASKLQSEISR [_GETASK(Succinyl)LQSEISR_],collision cross section,[26],399.77 ± 2 Å²
AAINQKLIETGER [_AAINQK(Acetyl (K))LIETGER_],collision cross section,[17],403.07 ± 1 Å²
DASTLQSQKAEGTGDAK [_DASTLQSQK(Acetyl (K))AEGTGDAK_],collision cross section,[17],431.11 ± 1.6 Å²
same,collision cross section,[24],508.84 ± 0.99 Å²
APEYLHR [_APEY(Nitro (Y))LHR_],collision cross section,[15],321.02 ± 1.2 Å²
VTLEVGKVIQQGR [_VTLEVGK(Butyryl)VIQQGR_],collision cross section,[3],412.79 ± 0.23 Å²
same,collision cross section,"charge state: 3, modification: Butyryl",483.04 ± 1.9 Å²
GSLEKGSPEDK [_GSLEK(GlyGly (K))GSPEDK_],collision cross section,[4],367.44 ± 0.9 Å²
same,collision cross section,[5],425.67 ± 1.6 Å²
GGGYGGDRGGYGGDR [_GGGYGGDR(Methyl (R))GGYGGDR_],collision cross section,[25],455.76 ± 1.3 Å²
DSLGVSFPEELACK [_DSLGVS(HexNAc (ST))FPEELACK_],collision cross section,[16],437.05 Å²
